Columns and labels:
[1] = target: CanAg antigen (human) (UniProt P15941); test: flow cytometry on CanAg positive Colo205 cells, AF488 anti-human IgG secondary, MFI curve
[2] = target: CanAg antigen (human) (UniProt P15941); test: flow cytometry on N87 cells, 20 µg/mL PE conjugate, Quantibrite PE beads
[3] = target: CanAg antigen (human) (UniProt P15941); test: flow cytometry on Colo205 cells, 20 µg/mL PE conjugate, Quantibrite PE beads
[4] = target: CanAg antigen (human) (UniProt P15941); test: flow cytometry on BxPC3 cells, 20 µg/mL PE conjugate, Quantibrite PE beads
[5] = target: CanAg antigen (human) (UniProt P15941); test: flow cytometry on HT-29 cells, 20 µg/mL PE conjugate, Quantibrite PE beads
[6] = target: CanAg antigen (human) (UniProt P15941); test: flow cytometry on SNU-16 cells, 20 µg/mL PE conjugate, Quantibrite PE beads
[7] = test system: Colo-205 xenograft; settings: CB17 SCID mice, single intravenous dose 2 mg/kg (53 nmol drug/kg), calculation based on day 16
Protocol: Mice were subcutaneously inoculated into the right flank with 5×10^6 Colo-205 cells in 0.2 mL of DPBS mixed 1:1 with BD Matrigel. […] Tumour size was measured thrice weekly in two dimensions using a calliper, and the volume was expressed in mm^3 using the formula: V=0.5 a×b^2 where a and b are the long and short diameters of the tumour, respectively (see FIGS. 17A, 18 A and 19 A). The tumour size was then used for calculations of TGI (%) values (see Table 5). TGI, representing antitumor effectiveness, were calculated using the formula TGI (%)=[1-(Vtreat-t−Vtreat-1)/(Vcontrol-t−Vcontrol-1)]×100, where Vtreat-1 and Vcontrol-1 are the mean volumes of the treated and control groups on grouping day; Vtreat-t and Vcontrol-t are the mean volumes of the treated and control groups on a given day. Animals were euthanized when tumour volumes reached 2000 mm^3. Body weight was also measured thrice weekly as a measure of compound toxicity (see FIGS. 17 B, 18 B and 19 B).

[8] = test system: BxPC3 xenograft; test: In vivo efficacy study in BxPC3 xenograft model; parameters: species or system mice
Protocol: Conjugate doses of 0.4 mg/kg (5.3 nmol of conjugated drug/kg), 1 mg/kg (13 nmol of conjugated drug/kg) for ADC-2 and ADC-3, and 0.2 mg/kg (5.3 nmol of conjugated drug/kg) and 0.5 mg/kg (13 nmol of conjugated drug/kg) for Cantuzumab ravtansine were used.

[9] = test system: Colo-205 cells; test: Cell Titre-Glo (CTG) in vitro activity assay, Colo-205; type: cell-based, human; settings: 72 h, 10% FBS (FIG. 16)
Text: (§1) The ADC non-binding control was an anti-CD19 ADC (DAR 2.0) composed of the same linker-drug combination as ADC-3.

[10] = test system: NCI-N87 gastric cancer xenograft; test: In vivo efficacy study in NCI-N87 xenograft model; parameters: species or system mice; settings: single intravenous dose 2 mg/kg (53 nmol drug/kg), day 33
Text: as §1

B1: HC1 + LC1 (antibody, human IgG1, kappa, V domains shown)
VH: QVQLVQSGAEVKKPGASVKVSCKASDYTFTYYGINWVRQAPGQGLEWMGWIDTTTGEPNYAQKLQGRVTFTLDTSASTAYMELRSLRSDDTAVYYCARRGPYNWYFDVWGQGTLVTVSS
VL: DIVMTQTPLSLPVTPGEPASISCRSSKSLLHSNGNTYLYWYLQKPGQSPQLLIYRMSNRASGVPDRFSGSGSGTDFTLKISRVEAEDVGVYYCLQHLEYPFTFGPGTKVDIKR
How did the EC50 [1] turn out when B1 was run?
Its EC50 is 0.274 µg/mL.

B2: Phycoerythrin (PE)-conjugated HC1LC1 antibody (antibody, V domains shown)
VH: QVQLVQSGAEVKKPGASVKVSCKASDYTFTYYGINWVRQAPGQGLEWMGWIDTTTGEPNYAQKLQGRVTFTLDTSASTAYMELRSLRSDDTAVYYCARRGPYNWYFDVWGQGTLVTVSS
VL: DIVMTQTPLSLPVTPGEPASISCRSSKSLLHSNGNTYLYWYLQKPGQSPQLLIYRMSNRASGVPDRFSGSGSGTDFTLKISRVEAEDVGVYYCLQHLEYPFTFGPGTKVDIKR
modifications: R-phycoerythrin conjugated by Lightning-Link kit; sites not stated
Which results are given for B2?
PE molecules per cell (PE molecules per cell) [2]: 2570; PE molecules per cell (PE molecules per cell) [3]: 2.61e+06; PE molecules per cell (PE molecules per cell) [4]: 75300; PE molecules per cell (PE molecules per cell) [5]: 626000; PE molecules per cell (PE molecules per cell) [6]: 1.15e+07

B3: HC3 + LC1 (antibody, human IgG1, kappa, V domains shown)
VH: QVQLVQSGAEVKKPGASVKVSCKASDYTFTYYGINWVRQATGQGLEWMGWIDTTTGEPTYAQKFQGRVTFTLETSISTAYMELSSLRSEDTAVYYCARRGPYNWYFDVWGAGTLVTVSS
VL: DIVMTQTPLSLPVTPGEPASISCRSSKSLLHSNGNTYLYWYLQKPGQSPQLLIYRMSNRASGVPDRFSGSGSGTDFTLKISRVEAEDVGVYYCLQHLEYPFTFGPGTKVDIKR
Which EC50 [1] does the source give for B3 here?
Its EC50 is 0.266 µg/mL.

B4: HC1 + LC2 (antibody, human IgG1, kappa, V domains shown)
VH: QVQLVQSGAEVKKPGASVKVSCKASDYTFTYYGINWVRQAPGQGLEWMGWIDTTTGEPNYAQKLQGRVTFTLDTSASTAYMELRSLRSDDTAVYYCARRGPYNWYFDVWGQGTLVTVSS
VL: DIVMTQSPLSLPVTPGEPASISCRSSKSLLHSNGNTYLYWYLQKPGQSPQLLIYRMSNLASGVPDRFSGSGSGTDFTLKISRVEAEDVGVYYCLQHLEYPFTFGPGTKVDIKR
For B4, which EC50 [1] is on record?
Its EC50 is 0.268 µg/mL.

B5: HC1 + LC3 (antibody, human IgG1, kappa, V domains shown)
VH: QVQLVQSGAEVKKPGASVKVSCKASDYTFTYYGINWVRQAPGQGLEWMGWIDTTTGEPNYAQKLQGRVTFTLDTSASTAYMELRSLRSDDTAVYYCARRGPYNWYFDVWGQGTLVTVSS
VL: DIVMTQTPLSLSVTPGQPASISCKSSKSLLHSNGNTYLYWYLQKPGQSPQLLIYRMSNLFSGVPDRFSGSGSGTDFTLKISRVEAEDVGVYYCLQHLEYPFTFGPGTKVDIKR
B5 was tested. Which EC50 [1] did it give?
Its EC50 is 0.305 µg/mL.

B6: HC3 + LC3 (antibody, human IgG1, kappa, V domains shown)
VH: QVQLVQSGAEVKKPGASVKVSCKASDYTFTYYGINWVRQATGQGLEWMGWIDTTTGEPTYAQKFQGRVTFTLETSISTAYMELSSLRSEDTAVYYCARRGPYNWYFDVWGAGTLVTVSS
VL: DIVMTQTPLSLSVTPGQPASISCKSSKSLLHSNGNTYLYWYLQKPGQSPQLLIYRMSNLFSGVPDRFSGSGSGTDFTLKISRVEAEDVGVYYCLQHLEYPFTFGPGTKVDIKR
Which EC50 [1] does the source give for B6 here?
The EC50 was 0.294 µg/mL.

B7: HC3 + LC2 (antibody, human IgG1, kappa, V domains shown)
VH: QVQLVQSGAEVKKPGASVKVSCKASDYTFTYYGINWVRQATGQGLEWMGWIDTTTGEPTYAQKFQGRVTFTLETSISTAYMELSSLRSEDTAVYYCARRGPYNWYFDVWGAGTLVTVSS
VL: DIVMTQSPLSLPVTPGEPASISCRSSKSLLHSNGNTYLYWYLQKPGQSPQLLIYRMSNLASGVPDRFSGSGSGTDFTLKISRVEAEDVGVYYCLQHLEYPFTFGPGTKVDIKR
B7 was tested. Which EC50 [1] did it give?
Its EC50 is 0.327 µg/mL.

B8: HC2 + LC1 (antibody, human IgG1, kappa, V domains shown)
VH: QVQLVQSGAEVKKPGASVKVSCKASDYTFTYYGMNWVRQAPGQGLEWMGWIDTTTGEPSYAQKFQGRVTFTLDTSASTVYMELSSLRSEDTAVYYCARRGPYNWYFDVWGQGTLVTVSS
VL: DIVMTQTPLSLPVTPGEPASISCRSSKSLLHSNGNTYLYWYLQKPGQSPQLLIYRMSNRASGVPDRFSGSGSGTDFTLKISRVEAEDVGVYYCLQHLEYPFTFGPGTKVDIKR
How did the EC50 [1] turn out when B8 was run?
The EC50 was 0.351 µg/mL.

B9: HC2 + LC3 (antibody, human IgG1, kappa, V domains shown)
VH: QVQLVQSGAEVKKPGASVKVSCKASDYTFTYYGMNWVRQAPGQGLEWMGWIDTTTGEPSYAQKFQGRVTFTLDTSASTVYMELSSLRSEDTAVYYCARRGPYNWYFDVWGQGTLVTVSS
VL: DIVMTQTPLSLSVTPGQPASISCKSSKSLLHSNGNTYLYWYLQKPGQSPQLLIYRMSNLFSGVPDRFSGSGSGTDFTLKISRVEAEDVGVYYCLQHLEYPFTFGPGTKVDIKR
For B9, which EC50 [1] is on record?
The EC50 was 0.354 µg/mL.

B10: HC2 + LC2 (antibody, human IgG1, kappa, V domains shown)
VH: QVQLVQSGAEVKKPGASVKVSCKASDYTFTYYGMNWVRQAPGQGLEWMGWIDTTTGEPSYAQKFQGRVTFTLDTSASTVYMELSSLRSEDTAVYYCARRGPYNWYFDVWGQGTLVTVSS
VL: DIVMTQSPLSLPVTPGEPASISCRSSKSLLHSNGNTYLYWYLQKPGQSPQLLIYRMSNLASGVPDRFSGSGSGTDFTLKISRVEAEDVGVYYCLQHLEYPFTFGPGTKVDIKR
Which EC50 [1] does the source give for B10 here?
Its EC50 is 0.408 µg/mL.

B11: Cantuzumab ravtansine: humanised ADC targeting CanAg: cantuzumab (HuC242) conjugated to the cytotoxic maytansinoid drug ravtansine; DAR 4.0 (conjugate, chains of the INN, looked up)
VH: QVQLVQSGAEVKKPGETVKISCKASDYTFTYYGMNWVKQAPGQGLKWMGWIDTTTGEPTYAQKFQGRIAFSLETSASTAYLQIKSLKSEDTATYFCARRGPYNWYFDVWGQGTTVTVSS
VL: DIVMTQSPLSVPVTPGEPVSISCRSSKSLLHSNGNTYLYWFLQRPGQSPQLLIYRMSNLVSGVPDRFSGSGSGTAFTLRISRVEAEDVGVYYCLQHLEYPFTFGPGTKLELK
modifications: ravtansine maytansinoid payload, DAR 4.0
notes: humanised ADC targeting CanAg: cantuzumab (HuC242) conjugated to the cytotoxic maytansinoid drug ravtansine; DAR 4.0
Which “TGI [%] at 15 day” value [7] does the source give for B11 here?
The value was 40%.

And the “anti-tumour response (in words)” value ([8]; 0.2 mg/kg and 0.5 mg/kg, in comparison to ADC-2 and ADC-3 at the same conjugated drug doses (FIG. 20))?
The value was “weak anti-tumour response”.

What about the “time at which tumour started to regrow” value ([8]; 2 mg/kg (53 nmol drug/kg)) of the same molecule?
Its value is over 32 days.

What about the “tumour inhibition (in words)” value ([8]; 2 mg/kg (53 nmol drug/kg) (FIG. 21 A)) of the same molecule?
Its value is “complete tumour inhibition”.

And the “TGI [%] at 29 or 32* day” value ([8]; single intravenous dose 0.2 mg/kg (5.3 nmol drug/kg), day 29)?
The value was 24.3%.

And the “TGI [%] at 29 or 32* day” value ([8]; single intravenous dose 0.5 mg/kg (13 nmol drug/kg), day 29)?
Its value is 34.6%.

And the “TGI [%] at 29 or 32* day” value ([8]; single intravenous dose 2 mg/kg (53 nmol drug/kg), day 32)?
The value was 104* %.

What about the cells killed [9] of the same molecule?
The cells killed was 75%.

And the “TGI [%] at 33 day” value [10]?
Its value is 43%.
